System: KKAy mice
Test: Enho 1 ip for 3 days in KKAy mice (Examples 16-18)
Format: in vivo, mouse
Protocol: (§1) The effect of Enho-1 upon weight loss was tested over the course of 3 days using KKAy mice. The mice were fed Breeder Chow (Purina 5015) and were approximately 12-14 weeks of age at the start of the experiment. Six control mice received vehicle only while six test mice each received doses of either 900 nmol/kg/d or 9000 nmol/kg/d. The injections were given as 3 intraperitoneal (ip) injections at 0600, 1400 and 2000 h on days 1 and 2; over the 3 day period, the mice received a total of 7 injections. All animals were euthanized 5 hours after the last injection given the morning of the third day. Food was removed after the final injection.
as §1, with “insulin and glucose” for “weight loss”, “while five or” for “while”, “nmol/kg/d, respectively.” for “nmol/kg/d.”, “ip” for “intraperitoneal (ip)”, “injection. The HOMA-IR for each treatment was calculated using the following formula: ((glucose mg/dL÷18)×(insulin ng/ml×25.05))÷22.5” for “injection.”
as §1, with “liver weight, liver lipid content and liver TG” for “weight loss”, “while five or” for “while”, “nmol/kg/d, respectively.” for “nmol/kg/d.”, “ip” for “intraperitoneal (ip)”

[1] = 900 nmol/kg/d ip, listed as Enho-1
[2] = 9000 nmol/kg/d ip, listed as Enho-1

B1: Enho 1: human Enho 1, a 76 amino acid peptide having the sequence SEQ ID NO: 14 (peptide, listed as Homo sapiens)
chain: MGAAISQGALIAIVCNGLVGFLLLLLWVILCWACHSRSADVDSLSESSPNSSPGPCPEKAPPPQKPSHEGSYLLQP
- Blood glucose (900 nmol/kg/d ip): 474 mg/dL
- HOMA-IR (900 nmol/kg/d ip): 167
- HOMA-IR decrease as compared to the control group (900 nmol/kg/d ip): 29%
- Insulin (900 nmol/kg/d ip): 5.7 ng/mL
- Liver TG (900 nmol/kg/d ip): 40 mg/g
- Liver TG total (900 nmol/kg/d ip): 66 mg/g
- Liver lipid (900 nmol/kg/d ip): 82 mg/g
- Liver lipid total (900 nmol/kg/d ip): 137 mg/g
- Liver weight (900 nmol/kg/d ip): 1.6 g
- Liver weight % body weight (900 nmol/kg/d ip): 5.0%
- Weight (pre-treatment) (900 nmol/kg/d ip): 35.3 g
- Weight (termination) (900 nmol/kg/d ip): 33.0 g
- blood glucose levels decrease (900 nmol/kg/d ip): approximately 10%
- insulin levels reduction (900 nmol/kg/d ip): about 22%
- liver TG reduction as compared to the control group (900 nmol/kg/d ip): 32%
- Blood glucose [1]: 474 ± 29 mg/dL
- HOMA-IR [1]: 167 ± 18
- HOMA-IR decrease as compared to the control group [1]: (↓ 29%)
- Insulin [1]: 5.7 ± 0.5 ng/mL
- Liver TG [1]: 40 ± 8 mg/g
- Liver TG total [1]: 66 ± 13 mg/g
- Liver lipid [1]: 82 ± 9 mg/g
- Liver lipid total [1]: 137 ± 18 mg/g
- Liver weight [1]: 1.6 ± 0.1 g
- Liver weight % body weight [1]: 5.0 ± 0.2%
- Weight (pre-treatment) [1]: 35.3 ± 1.1 g
- Weight (termination) [1]: 33.0 ± 1.0 g
- Blood glucose (9000 nmol/kg/d ip): 480 mg/dL
- HOMA-IR (9000 nmol/kg/d ip): 213
- HOMA-IR decrease as compared to the control group (9000 nmol/kg/d ip): 9%
- Insulin (9000 nmol/kg/d ip): 7.0 ng/mL
- Liver TG total (9000 nmol/kg/d ip): 53 mg/g
- Liver lipid (9000 nmol/kg/d ip): 87 mg/g
- Liver lipid total (9000 nmol/kg/d ip): 143 mg/g
- Liver weight (9000 nmol/kg/d ip): 1.6 g
- Liver weight % body weight (9000 nmol/kg/d ip): 4.9%
- Weight (pre-treatment) (9000 nmol/kg/d ip): 35.6 g
- Weight (termination) (9000 nmol/kg/d ip): 33.1 g
- liver TG reduction as compared to the control group (9000 nmol/kg/d ip): 46%
- Liver TG (9000 nmol/kg/d ip, P < 0.05 vs control): 32 mg/g
- Liver TG (9000 nmol/kg/d ip, P < 0.05 vs control, listed as Enho-1): 32 ± 5 mg/g
- Blood glucose [2]: 480 ± 38 mg/dL
- HOMA-IR [2]: 213 ± 37
- HOMA-IR decrease as compared to the control group [2]: (↓ 9%)
- Insulin [2]: 7.0 ± 0.8 ng/mL
- Liver TG total [2]: 53 ± 11 mg/g
- Liver lipid [2]: 87 ± 6 mg/g
- Liver lipid total [2]: 143 ± 17 mg/g
- Liver weight [2]: 1.6 ± 0.1 g
- Liver weight % body weight [2]: 4.9 ± 0.3%
- Weight (pre-treatment) [2]: 35.6 ± 0.6 g
- Weight (termination) [2]: 33.1 ± 0.4 g

From patent US8518892B2, “Methods to treat symptoms of pathophysiology related to body mass” (Board of Supervisors of Louisiana State University and …, priority 2005, dated 2013)
